Experimental data reported in PMC9117480.

Experiments:
[1] = target: GST mutant encoding FPheK at position-52 (Schistosoma japonicum (printed only as SjGST)); test: cross-linking
[2] = target: GST mutant encoding FSY at position-52 (Schistosoma japonicum (printed only as SjGST)); test: cross-linking

Row | Substance | stoichiometry N [1] | stoichiometry N [2]
1 | GST mutant encoding FPheK at position-52 (enzyme) | 2 | –
2 | GST mutant encoding FSY at position-52 (enzyme) | – | 2
